Molecular target: F10_Y11delinsLN mutant human γS-crystallin (human) (UniProt P22914)
Sequence (P22914 other isoform, or with tags, fused parts or gaps mutant): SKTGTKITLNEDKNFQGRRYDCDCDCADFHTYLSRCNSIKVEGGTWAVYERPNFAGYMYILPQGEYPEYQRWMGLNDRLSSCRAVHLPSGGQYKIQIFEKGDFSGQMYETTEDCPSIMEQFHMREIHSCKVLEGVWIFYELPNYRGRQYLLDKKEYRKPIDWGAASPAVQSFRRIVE

Chain of human αA-crystallin (P02489 whole entry): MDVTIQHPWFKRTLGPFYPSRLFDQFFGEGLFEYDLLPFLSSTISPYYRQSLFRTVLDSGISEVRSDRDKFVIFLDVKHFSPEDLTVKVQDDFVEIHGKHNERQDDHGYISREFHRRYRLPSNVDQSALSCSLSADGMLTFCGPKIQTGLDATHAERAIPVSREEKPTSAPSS

particle radius by dynamic light scattering, 30 to 60 °C; 1:1 molar ratio mixture (the mutant alone: 1063 nm radius after heating to 60 °C): 13.3 nm
Substance: human αA-crystallin (from UniProt P02489 1-173) (natural protein)

From PMC10531703
